Values quoted from earlier work, collected in paper PMC6589385.

Target: His19 (position 19, …)
Test: NMR
Conditions: Membrane-bound wild-type BM2 tetrameric channel

B1: Influenza B virus M2 protein (BM2) transmembrane domain, wild type (Influenza B virus) (peptide)
chain: MLEPFQILSISSFILSALHFMAWTIGHLNQIKR
  pKa: 5.1
